Test results taken from patent US20250032576A1, “CNP Therapy” (BIOMARIN PHARMACEUTICAL INC., priority 2021, published 2025).
Positions count from the first letter of the chain named. “And” between values parts separate entries of the source, which are not always exact repeats. Identical values can stand only once. Like-named read-outs stand apart in the source and are kept apart here. No end group written: not given here.

B1: Ala48Ser: NPR2 protein-altering variant, expression construct transfected into HEK293 cells (protein)
chain: RNLTLAVVLPEHNLSYAWAWPRVGPSVALAVEALGRALPVDLRFVSSELEGACSEYLAPLSAVDLKLYHDPDLLLGPGCVYPAASVARFASHWRLPLLTAGAVASGFSAKNDHYRTLVRTGPSAPKLGEFVVTLHGHFNWTARAALLYLDARTDDRPHYFTIEGVFEALQGSNLSVQHQVYAREPGGPEQATHFIRANGRIVYICGPLEMLHEILLQAQRENLTNGDYVFFYLDVFGESLRAGPTRATGRPWQDNRTREQAQALREAFQTVLVITYREPPNPEYQEFQNRLLIRAREDFGVELGPSLMNLIAGCFYDGILLYAEVLNETIQEGGTREDGLRIVEKMQGRRYHGVTGLVVMDKNNDRETDFVLWAMGDLDSGDFQPAAHYSGAEKQIWWTGRPIPWVKGAPPSDNPPCAFDLDDPSCDKTPLSTLAIVALGTGITFIMFGVSSFLIFRKLMLEKELASMLWRIRWEELQFGNSERYHKGAGSRLTLSLRGSSYGSLMTAHGKYQIFANTGHFKGNVVAIKHVNKKRIELTRQVLFELKHMRDVQFNHLTRFIGACIDPPNICIVTEYCPRGSLQDILENDSINLDWMFRYSLINDLVKGMAFLHNSIISSHGSLKSSNCVVDSRFVLKITDYGLASFRSTAEPDDSHALYAKKLWTAPELLSGNPLPTTGMQKADVYSFGIILQEIALRSGPFYLEGLDLSPKEIVQKVRNGQRPYFRPSIDRTQLNEELVLLMERCWAQDPAERPDFGQIKGFIRRFNKEGGTSILDNLLLRMEQYANNLEKLVEERTQAYLEEKRKAEALLYQILPHSVAEQLKRGETVQAEAFDSVTIYFSDIVGFTALSAESTPMQVVTLLNDLYTCFDAIIDNFDVYKVETIGDAYMVVSGLPGRNGQRHAPEIARMALALLDAVSSFRIRHRPHDQLRLRIGVHTGPVCAGVVGLKMPRYCLFGDTVNTASRMESNGQALKIHVSSTTKDALDELGCFQLELRGDVEMKGKGKMRTYWLLGERKGPPGLL
B2: Arg562Gln: NPR2 protein-altering variant, expression construct transfected into HEK293 cells (protein)
chain: B1 chain with S26A, R540Q
B3: Arg263His: NPR2 protein-altering variant, expression construct transfected into HEK293 cells (protein)
chain: B1 chain with S26A, R241H
B4: HIS508Asp: NPR2 protein-altering variant, expression construct transfected into HEK293 cells (protein)
chain: B1 chain with S26A, H486D
B5: Glu389Asp: NPR2 protein-altering variant, expression construct transfected into HEK293 cells (protein)
chain: B1 chain with S26A, E367D
B6: Glu727Gln: NPR2 protein-altering variant, expression construct transfected into HEK293 cells (protein)
chain: B1 chain with S26A, E705Q
B7: Lys367Glu: NPR2 protein-altering variant, expression construct transfected into HEK293 cells (protein)
chain: B1 chain with S26A, K345E
B8: Glu359Ala: NPR2 protein-altering variant, expression construct transfected into HEK293 cells (protein)
chain: B1 chain with S26A, E337A
B9: Thr377Asn: NPR2 protein-altering variant, expression construct transfected into HEK293 cells (protein)
chain: B1 chain with S26A, T355N
B10: Pro301Ser: NPR2 protein-altering variant, expression construct transfected into HEK293 cells (protein)
chain: B1 chain with S26A, P279S
B11: His552Arg: NPR2 protein-altering variant, expression construct transfected into HEK293 cells (protein)
chain: B1 chain with S26A, H530R
B12: Val553Leu: NPR2 protein-altering variant, expression construct transfected into HEK293 cells (protein)
chain: B1 chain with S26A, V531L
B13: Thr907Met: NPR2 protein-altering variant, expression construct transfected into HEK293 cells (protein)
chain: B1 chain with S26A, T885M
B14: Arg776Trp: NPR2 protein-altering variant, expression construct transfected into HEK293 cells (protein)
chain: B1 chain with S26A, R754W
B15: Leu1009Val: NPR2 protein-altering variant, expression construct transfected into HEK293 cells (protein)
chain: B1 chain with S26A, L987V
B16: Lys480Asn: NPR2 protein-altering variant, expression construct transfected into HEK293 cells (protein)
chain: B1 chain with S26A, K458N
B17: Thr861Ile: NPR2 protein-altering variant, expression construct transfected into HEK293 cells (protein)
chain: B1 chain with S26A, T839I
B18: Lys629Arg: NPR2 protein-altering variant, expression construct transfected into HEK293 cells (protein)
chain: B1 chain with S26A, K607R
B19: Ala59Thr: NPR2 protein-altering variant, expression construct transfected into HEK293 cells (protein)
chain: B1 chain with S26A, A37T
B20: Gly209Val: NPR2 protein-altering variant, expression construct transfected into HEK293 cells (protein)
chain: B1 chain with S26A, G187V

Key:
[1] = system: plasma NTproCNP; conditions: short non Ach children starting daily HGH, day 21; cited from earlier work
[2] = system: lumbar vertebral nppc expression, plasma NTproCNP; conditions: cited from earlier work
[3] = system: NPR2; assay: cGMP catchpoint assay of NPR2 variants in transfected HEK293 cells treated with 20 nM CNP; type: cell-based; set-up: key to Lable: loss-of-function (LoF); Gain-of-function (GoF); conditions: for average phenotype: cGMP normalized to RedLuciferase and to WT = 1, HEK293, 20 nM CNP, 0.4 nM IBMX, at least 3 repeat experiments with 4 replicates each; for Lable: high-confidence variant class
Procedure: Described herein is an in-vitro assay (cGMP) to assess the activities of >260 NPR2 variants. NPR2 protein-altering variants have been identified in the UK Biobank study and described in Estrada et al. (Nat Commun. 2021 12 (1): 2224). NPR2-expression constructs were transfected into HEK293 cells and 3 days later cells were treated with […] IBMX and 20 nM CNP in serum-free DMEM prior to measuring cGMP levels. The cGMP catchpoint ELISA competition assay (Molecular Devices) was used to measure cGMP according to manufacturer recommendations. RedLuc was used as a transfection control (FIG. 8A).
The NPR2 alpha-fold structure was obtained from a recent alpha-fold publication (Jumper et al., Nature 596:583-589 (2021)). A list of phenotypically characterized “high-confidence” variants was generated (Table 4). Phenotype is calculated by determining levels of cGMP using a standard curve. This value to normalized to RedLuciferase (transfection control). This value is further normalized by setting WT to 1. Average value is calculated from at least 3 repeat experiments with 4 replicates each.

| Molecule | average phenotype [3] | Lable [3] | other results |
| --- | --- | --- | --- |
| Human Growth Hormone [Human Growth Hormone (HGH)] |  |  | increase in NTproCNP, delta [1]: 22%; increase in NTproCNP, mean [1]: 11 pmol/L |
| CNP 53: active 53-amino acid peptide generated from pro-CNP by furin cleavage (DLRVDTKSRAAWARLLQEHPNARKYKGANKKGLSKGCFGLKLDRIGSMSGLGC; ends and bridges not checked; cysteine pairing not given here; UniProt P23582 74-126, looked up) |  |  | lumbar vertebral nppc expression ([2]; 3 days continuous high dose intravenous infusion): significantly reducing; plasma NTproCNP ([2]; females (n=6)): small decline; plasma NTproCNP ([2]; male rats (n=6)): did not reduce |
| B1 | 0.06785 | LoF |  |
| B2 | 1.554 and 1.629 | GoF |  |
| B3 | 1.863 | GoF |  |
| B4 | 1.74 | GoF |  |
| B5 | 0.07079 | LoF |  |
| B6 | 1.705 | GoF |  |
| B7 | 0.01438 | LoF |  |
| B8 | 2.998 | GoF |  |
| B9 | 0.01062 | LoF |  |
| B10 | 0.08478 | LoF |  |
| B11 | 1.794 | GoF |  |
| B12 | 1.515 | GoF |  |
| B13 | 0.01456 | LoF |  |
| B14 | 0.01312 | LoF |  |
| B15 | 0.0847 | LoF |  |
| B16 | 1.689 | GoF |  |
| B17 | 0.07978 and 0.01124 | LoF |  |
| B18 | 1.493 | GoF |  |
| B19 | 3.735 | GoF |  |
| B20 | 0.08861 | LoF |  |
